{"source": "paper doi:10.1101/2024.09.29.615664", "target": "reconstituted mononucleosome with unmodified H3K56 (UniProt P68431)", "assay": "pull-down"}
{"substance": "MutSβ (MSH2-MSH3 complex), purified (from UniProt P43246;P20585)", "values": [{"measurement": "fold of MSH3 pulled down against the H3K56ac-nucleosome", "result": 4, "unit": "fold"}]}
